For experiment [1], the target named is T1, human insulin-like growth factor-1 (mature, recombinant native IGF-1, Peprotech Cat.#100-11) (human, UniProt P05019 49-118).
T1 construct: In SPR it was the analyte in solution; also called native recombinant IGF-1; human IGF-1
Description: ELISA, clone culture supernatant. (ELISA stands for enzyme-linked immunosorbent assay.)

The target in experiment [2] is T1, human insulin-like growth factor-1 …. Briefly: SPR (BIAcore T200), 25 C, antibody captured, antigen in solution. The procedure:
(§1) The BIAcore T200 System was driven under the control software V1.1.1. Polyclonal rabbit IgG antibody <IgGFCγM>R (Jackson ImmunoResearch Laboratories Inc.) was immobilized at 30 μg/ml in 10 mM sodium acetate buffer (pH 4.5) at 6500 RU on the flow cells 1, 2, 3, and 4, respectively, via EDC/NHS chemistry according to the manufacturer's instructions. Finally, the sensor surface was blocked with a 1 M ethanolamine solution. The complete experiment was performed at 25° C.
(§2) The clone culture supernatants containing the respective antibodies at approx. 40 nM were captured for 2 min at a flow rate of 5 μl/min on the <IgGFCγM>R surface. As analytes in solution the recombinant native IGF-1 (Peprotech Inc. Cat.#100-11), recombinant native IGF-2 (Peprotech Inc. Cat.#100-12), Thermus thermophilus SlyD-IGF-1(74-90), recombinant wild-type Thermus thermophilus SlyD, recombinant Thermus thermophilus SlyD-ΔIF, recombinant wild-type Thermococcus gammadurans SlyD, recombinant Thermococcus gammadurans SlyD-IGF-2 (53-65) fusion polypeptides were used. Thermus thermophilus SlyD-ΔIF is solely the FKBP domain of Thermus thermophilus SlyD lacking the IF domain. Thermococcus gammadurans SlyD-IGF-2(53-65) was used to counterscreen and investigate the specificity for the IGF-1 hairpin in contrast to the IGF-2 hairpin insertion. The respective analytes were injected at different concentration steps from 90 nM, 30 nM, 10 nM, 3.3 nM, 1.1 nM and 0 nM. The association phase was monitored for 3 min. at a flow rate of 100 μl/min. The dissociation was monitored for 10 min. at a flow rate of 100 μl/min. The system was regenerated using a 10 mM glycine buffer (pH 1.7). Kinetics were evaluated using the BIAcore Evaluation Software.

Another experiment deals with T2, SEQ ID NO 43 (human, also: covalently linked to cellulose).
T2 construct: Spot on the CelluSpots peptide array; also called F-Y-F-G-N-K-P-T-G-Y-G-S-S-S-R
T2 peptide: FYFGNKPTGYGSSSR
Description: CelluSpots peptide array, chemiluminescence. How it is done: (§3) Each peptide synthesized was shifted by one amino acid, i.e. it had 14 amino acids overlap with the previous and the following peptide, respectively. For preparation of the peptide arrays the Intavis CelluSpots™ technology was employed. In this approach, peptides are synthesized with an automated synthesizer (Intavis MultiPep RS) on modified cellulose disks which are dissolved after synthesis. The solutions of individual peptides covalently linked to macromolecular cellulose are then spotted onto coated microscope slides. The CelluSpots™ synthesis was carried out stepwise utilizing 9-fluorenylmethoxycarbonyl (Fmoc) chemistry on amino-modified cellulose disks in a 384-well synthesis plate. In each coupling cycle, the corresponding amino acids were activated with a solution of DIC/HOBt in DMF. Between coupling steps un-reacted amino groups were capped with a mixture of acetic anhydride, diisopropylethyl amine and 1-hydroxybenzotriazole. Upon completion of the synthesis, the cellulose disks were transferred to a 96-well plate and treated with a mixture of trifluoroacetic acid (TFA), dichloromethane, triisoproylsilane (TIS) and water for side chain deprotection. After removal of the cleavage solution, the cellulose bound peptides are dissolved with a mixture of TFA, TFMSA, TIS and water, precipitated with diisopropyl ether and re-suspended in DMSO. The peptide solutions were subsequently spotted onto Intavis CelluSpots™ slides using an Intavis slide spotting robot.
(§4) For epitope analysis, the slides prepared as described above were washed with ethanol and then with Tris-buffered saline (TBS; 50 mM Tris, 137 mM NaCl, 2.7 mM KCl, pH 8) before blocking for 16 h at 4° C. with 5 mL 10× Western Blocking Reagent (Roche Applied Science), 2.5 g sucrose in TBS, 0.1% Tween 20. The slide was washed with TBS and 0.1% Tween 20 and incubated afterward with 1 µg/mL of the corresponding IGF1 antibodies in TBS and 0.1% Tween 20 at ambient temperature for 2 h and subsequently washed with TBS+0.1% Tween 20. For detection, the slide was incubated with anti-rabbit/anti-mouse secondary HRP-antibody (1:20000 in TBS-T) followed by incubation with chemiluminescence substrate luminol and visualized with a Lumilmager (Roche Applied Science). ELISA-positive SPOTs were quantified and through assignment of the corresponding peptide sequences the antibody binding epitopes were identified.

A further experiment has as its target T3, SEQ ID NO 44 (human, also: covalently linked to cellulose).
T3 construct: Spot on the CelluSpots peptide array; also called Y-F-G-N-K-P-T-G-Y-G-S-S-S-R-R
T3 peptide: YFGNKPTGYGSSSRR
Description: CelluSpots peptide array, chemiluminescence. The procedure: as §3, §4

The target in the next experiment is T4, SEQ ID NO 45 (human, also: covalently linked to cellulose).
T4 construct: Spot on the CelluSpots peptide array; also called F-G-N-K-P-T-G-Y-G-S-S-S-R-R-A
T4 peptide: FGNKPTGYGSSSRRA
Briefly: CelluSpots peptide array, chemiluminescence. The procedure: as §3, §4

In the next experiment the target is T5, SEQ ID NO 46 (human, also: covalently linked to cellulose).
T5 construct: Spot on the CelluSpots peptide array; also called G-N-K-P-T-G-Y-G-S-S-S-R-R-A-P
T5 peptide: GNKPTGYGSSSRRAP
Description: CelluSpots peptide array, chemiluminescence. How it is done: as §3, §4

In the next experiment the target is T6, SEQ ID NO 47 (human, also: covalently linked to cellulose).
T6 construct: Spot on the CelluSpots peptide array; also called N-K-P-T-G-Y-G-S-S-S-R-R-A-P-Q
T6 peptide: NKPTGYGSSSRRAPQ
Briefly: CelluSpots peptide array, chemiluminescence. The procedure: as §3, §4

Another experiment deals with T7, SEQ ID NO 48 (human, also: covalently linked to cellulose).
T7 construct: Spot on the CelluSpots peptide array; also called K-P-T-G-Y-G-S-S-S-R-R-A-P-Q-T
T7 peptide: KPTGYGSSSRRAPQT
Briefly: CelluSpots peptide array, chemiluminescence. The procedure: as §3, §4

For a further experiment, the target named is T8, SEQ ID NO 49 (human, also: covalently linked to cellulose).
T8 construct: Spot on the CelluSpots peptide array; also called P-T-G-Y-G-S-S-S-R-R-A-P-Q-T-G
T8 peptide: PTGYGSSSRRAPQTG
Description: CelluSpots peptide array, chemiluminescence. The procedure:
as §3, §4

Another experiment addresses T9, SEQ ID NO 50 (human, also: covalently linked to cellulose).
T9 construct: Spot on the CelluSpots peptide array; also called T-G-Y-G-S-S-S-R-R-A-P-Q-T-G-G
T9 peptide: TGYGSSSRRAPQTGG
Description: CelluSpots peptide array, chemiluminescence. How it is done:
as §3, §4

For experiment [3], the target named is T10, Thermus thermophilus wild type SlyD polypeptide (Thermus thermophilus).
T10 construct: Used as negative control; also called wild-type Thermus thermophilus SlyD; Thermus thermophilus-SlyD
T10 chain: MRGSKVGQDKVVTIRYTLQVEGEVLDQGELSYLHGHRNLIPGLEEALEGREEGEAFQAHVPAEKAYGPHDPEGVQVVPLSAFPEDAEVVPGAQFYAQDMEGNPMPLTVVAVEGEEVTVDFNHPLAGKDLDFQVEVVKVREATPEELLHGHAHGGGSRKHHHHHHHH
Description: ELISA, clone culture supernatant.

Experiment [4] concerns the target T11, Thermococcus gammatolerans wild-type SlyD polypeptide (Thermococcus gammatolerans).
T11 construct: also called wild-type Thermococcus gammadurans SlyD; native SlyD from Thermococcus gammatolerans
T11 chain: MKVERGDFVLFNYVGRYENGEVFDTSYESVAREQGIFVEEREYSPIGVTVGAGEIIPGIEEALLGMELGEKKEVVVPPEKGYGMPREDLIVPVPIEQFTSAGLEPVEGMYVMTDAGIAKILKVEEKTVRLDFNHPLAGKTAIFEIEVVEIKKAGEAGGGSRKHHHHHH
Briefly: SPR (BIAcore T200), 25 C, antibody captured, antigen in solution. How it is done: as §1, §2
A general note: Surface plasmon resonance follows binding to a sensor surface in real time, without labels.

The target of experiment [5] is T12, Thermococcus gammatolerans SlyD-IGF-2(53-65) fusion polypeptide.
T12 construct: Human IGF-2 amino acids 53-65 inserted into the Thermococcus gammatolerans SlyD scaffold, with GS spacer and hexahistidine tag; also called Thermococcus gammadurans SlyD-IGF-2 (53-65)
T12 chain: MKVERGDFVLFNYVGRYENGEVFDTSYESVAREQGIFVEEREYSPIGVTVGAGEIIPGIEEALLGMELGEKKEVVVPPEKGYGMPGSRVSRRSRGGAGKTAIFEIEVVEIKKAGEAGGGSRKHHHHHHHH
The experiment is described as above. The procedure: as §1, §2

Experiment [6] deals with T13, recombinant native IGF-2 (Peprotech Inc. Cat.#100-12) (human, UniProt P01344 25-91).
T13 construct: The sentence on the bought protein names no species; also called insulin-like growth factor-2
Described as above. The procedure: as §1, §2

For experiment [7], the target named is T10, Thermus thermophilus wild type SlyD …. The experiment is described as above. How it is done: as §1, §2

What is called Kd is the concentration at which binding is half-saturated. For orientation: koff means the first-order rate constant of dissociation. Broadly, the kon is a measure of how fast the partners come together.

Ends that are not written are not given here.

B1: MAb<h-IGF-1>M-10.07.09 (antibody, V domains shown)
VH: QVQLQQSGAELVRPGSSVKISCKASGYAFSSYWMNWVKQRPGQGLEWIGQIYPGDGDTNHNGKFKGKATLTADKSSSTVYMQLSSLTSEDSAVYFCARSGDYYGKDYWGQGTTLTVSS
VL: DIVLTQTPPSLPVNMGQKATISYKATKSLLNTDGYTYMHWNQQKPGQPPKLLIYLVSNRESGVPDRFSGSGSGTDFTLNINTVEEEDAATYYCHHSNELPHTFGAGTKLEIK
notes: Mouse monoclonal antibody from a hybridoma, raised with Thermus thermophilus SlyD-IGF-1(74-90); In SPR it was captured from clone culture supernatant through anti-mouse IgG Fc; also called MAb 10.07.09; M-10.7.9
For B1, the “reactivity [mE]” value in experiment [1] was determined as 2110 mE. Besides, in [2], the Kd turned out to be 1600 pM, the koff was 0.0015 s⁻¹, the kon was 920000 M⁻¹ s⁻¹ and the t1/2-diss came out at 0.133 h.

B2: MAb<h-IGF-1>M-11.11.17 (antibody, V domains shown)
VH: QVQLQQSGAELVRPGSSVKISCKASGYAFSNLWMNWVKQRPGQGLEWIGQIYPGDGDTNYYGDFKGKATLTADSSSSTAYMQLSRLTSEDSAVYFCARIGYYGMDYWGQGTSVTVSS
VL: DVVLTQTPLSLPVNIGDEASISCKSTKSLLSSDGLTYLDWYLQKPGQSPQVLIYLVSNRFSGVPDRFSGSGSGTDFTLKISRVEAEDLGVYYCFQSNYLPTFGAGTKLELK
notes: Mouse monoclonal IgG from a hybridoma, raised with Thermus thermophilus SlyD-IGF-1(74-90); also called MAb 11.11.17; mAb<IGF1>M-11.11.17
On to B2, for which the binding result with SEQ ID NO 43, with SEQ ID NO 44, with SEQ ID NO 45, in the experiment with SEQ ID NO 46, with SEQ ID NO 47 and with SEQ ID NO 48 was “binds” in each case. Further, the binding result with SEQ ID NO 49 is given as “binds”; with SEQ ID NO 50, “binds”; in experiment [4], “no binding (tested: 90 nM)”; in [5], “no binding (tested: 90 nM)”; in experiment [6], “no binding (tested: 90 nM)”; in experiment [7] it was “no binding (tested: 90 nM)”. For the same molecule, the “reactivity [mE]” value came out at 2430 mE in experiment [1] and 32 mE in experiment [3]. Besides, in experiment [2], the Kd is 10 pM. In addition, in [2], the koff was determined as 2.1e-05 s⁻¹. The kon in experiment [2] was 2e+06 M⁻¹ s⁻¹. The t1/2-diss in experiment [2] turned out to be 9.33 h.

The record behind these values is patent US20160137728A1 (ROCHE DIAGNOSTICS OPERATIONS, published 2016).
